Data as given in PMC5529448.

Target: P02689
Assay: dynamic light scattering; triplicates at +25 °C; 0.6–0.9 mg/ml protein; 0.3 M NaCl, 20 mM HEPES pH 7.5; proteins stored on ice for 24 h after SEC
Details: other: dynamic light scattering

B1: human myelin protein P2 T51P (protein)
chain: MSNKFLGTWKLVSSENFDDYMKALGVGLATRKLGNLAKPTVIISKKGDIIPIRTESTFKNTEISFKLGQEFEETTADNRKTKSIVTLQRGSLNQVQRWDGKETTIKRKLVNGKMVAECKMKGVVCTRIYEKV
Monomeric (%): 98.3%
